Data: PMC10325900, “A conserved motif in the disordered linker of human MLH1 is vital for DNA mismatch repair and its function is diminished by a cancer family mutation” (Nucleic Acids Research, 2023)
Changes are numbered by the printed parent chain. “Also recorded” adds a separate entry of the source.

B1: p.Arg385Tyr: MLH1 variant (protein, UniProt P40692 2-756, looked up, variant R385Y)
DNA mismatch repair protein …: SFVAGVIRRLDETVVNRIAAGEVIQRPANAIKEMIENCLDAKSTSIQVIVKEGGLKLIQIQDNGTGIRKEDLDIVCERFTTSKLQSFEDLASISTYGFRGEALASISHVAHVTITTKTADGKCAYRASYSDGKLKAPPKPCAGNQGTQITVEDLFYNIATRRKALKNPSEEYGKILEVVGRYSVHNAGISFSVKKQGETVADVRTLPNASTVDNIRSIFGNAVSRELIEIGCEDKTLAFKMNGYISNANYSVKKCIFLLFINHRLVESTSLRKAIETVYAAYLPKNTHPFLYLSLEISPQNVDVNVHPTKHEVHFLHEESILERVQQHIESKLLGSNSSRMYFTQTLLPGLAGPSGEMVKSTTSLTSSSTSGSSDKVYAHQMVYTDSREQKLDAFLQPLSKPLSSQPQAIVTEDKTDISSGRARQQDEEMLELPAPAEVAAKNQSLEGDTTKGTSEMSEKRGPTSSNPRKRHREDSDVEMVEDDSRKEMTAACTPRRRIINLTSVLSLQEEINEQGHEVLREMLHNHSFVGCVNPQWALAQHQTKLYLLNTTKLSEELFYQILIYDFANFGVLRLSEPAPLFDLAMLALDSPESGWTEEDGPKEGLAEYIVEFLKKKAEMLADYFSLEIDEEGNLIGLPLLIDNYVPPLEGLPIFILRLATEVNWDEEKECFESLSKECAMFYSIRKQYISEESTLSGQQSEVPGSIPNSWKWTVEHIVYKALRSHILPPKHFTEDGNILQLANLPDLYKVFERC
B2: p.Arg385Glu: MLH1 control variant (protein, UniProt P40692 2-756, looked up, variant R385E)
DNA mismatch repair protein …: B1 DNA mismatch repair protein … with Y384E
B3: p.Tyr379Cys: human MLH1 missense variant, c.1136A>G (protein, UniProt P40692 2-756, looked up, variant Y379C)
DNA mismatch repair protein …: B1 DNA mismatch repair protein … with Y378C, Y384R
B4: p.Arg385Ala: MLH1 control variant (protein, UniProt P40692 2-756, looked up, variant R385A)
DNA mismatch repair protein …: B1 DNA mismatch repair protein … with Y384A
B5: p.Arg385His: human MLH1 missense variant, c.1154G>A (protein, UniProt P40692 2-756, looked up, variant R385H)
DNA mismatch repair protein …: B1 DNA mismatch repair protein … with Y384H
B6: p.Val384Asp: human MLH1 missense variant, c.1151T>A (protein, UniProt P40692 2-756, looked up, variant V384D)
DNA mismatch repair protein …: B1 DNA mismatch repair protein … with V383D, Y384R

Test system: G-T mismatch in a test plasmid
Assay: MMR activity of MLH1 variants (MLH1-PMS2 expressed in HEK293T cells)
Assay type: biochemical, human
Settings: >3 independent experiments; for DNA mismatch repair activity of MLH1 variant (in words): variant MLH1 + PMS2 transfected in HEK293T, relative to wildtype, 37°C, 15 min; for effect of second p.Arg385 alteration on the MMR defect of p.Tyr750Arg: double variants (Figure 6D)
Procedure: Sequence variants of the MLH1 expression vector were generated using the Q5 site directed mutagenesis system (New England Biolabs, Ipswich, MA, USA) with the appropriate primers (Supplementary Table S1).
Mismatch repair activity was assessed as described in detail before ([79],[81]) (Supplementary Figure S3). […] Mismatched DNA plasmid substrate (Supplementary Figure S3) prepared according to previously published procedures ([81–83]) was added, and reactions in a final volume of 25 μl were incubated at 37°C for 15 min. Repair efficiency was scored by purifying the mismatched DNA plasmid from the reaction and assessing the fraction of homoduplex sequence by restriction digestion of the mismatched site using EcoRV. The substrate was additionally linearized with AseI.
Figure 2. Expression and DNA mismatch repair activity of human and artificial ConMot variants. […] As a negative control, one sample was only transfected with an EGFP. After 48 h, native whole cell protein extracts were prepared. Expression was assessed by SDS-PAGE and western blotting. (A) Representative western blot of MLH1 wildtype and variant expressions. Average expression levels of MLH1 of > 5 independent transfections were determined and are given in the bar diagram below. (B) The extracts of the transfections were used to assess the DNA mismatch repair activities of the variant MLH1 proteins in comparison with wildtype (WT) MLH1-PMS2 as detailed in Materials and Methods and as shown in Supplementary Figure S3. The EGFP-transfected extract sample served as negative control. Representative agarose gels are shown in the top panel.
Figure 3. Analysis of the relevance of ConMot core and surrounding sequences. MLH1 proteins containing either the wildtype human ConMot motif sequence or variants were directly compared concerning expression and MMR activity. (A) Comparison of the ConMot variants used: the core-scramble variant sequence, the full-scramble variant sequence and an animal-plant hybrid that contains the ConMot consensus sequence of plants as it exists, for example, in walnut and mungo bean (Vigna radiata and Juglans regia). (B) Comparison of conservation in the animal versus plant ConMot in WebLogo representation. Specific differences in conservation within the sequences flanking the core MVRTD sequence are marked by red arrows above the animal sequence. (C) Western blot of the expression of the different MLH1-ConMot wildtype (WT) and the variants shown in A after transfection in HEK293T cells; negative control: transfection of EGFP. (D) MMR activities were assessed in direct comparison to negative control and wildtype human MLH1 as in Figure 2B. Average activities and standard deviations were calculated from >3 independent experiments.
Figure 6. The MMR defect of p.Tyr750Arg is partly compensated by p.Arg385Tyr. […] (B) The side chain of the highly conserved Arg385 is predicted to be in proximity to the side chain of the highly conserved Tyr750 residue. (C) MLH1-PMS2-deficient HEK293T cells were co-transfected with the indicated single- and double variants of MLH1 and PMS2. Protein extracts were prepared, separated by SDS-PAGE, blotted and probed for MLH1 protein expression. (D) MMR assays were performed to test DNA mismatch repair activity as detailed in Materials and Methods. One representative agarose gel is shown, and average repair values in comparison to wildtype and standard deviations of >3 independent experiments are shown in a bar diagram. A two-sided t-test was performed for testing significance of the difference in repair activity of p.Tyr750Arg in comparison to the double variant p.Arg385Tyr + Tyr750Arg.
Mismatched DNA plasmid substrate and principle of MMR assay.
The MMR assay is performed using as substrate a modified 2 kbp derivative of the pUC vector (pUC
CPDC Bb v) originally generated by Wang and Hays and further modified by Plotz et al. and Gonzáles-
Acosta et al . […]

Molecule | DNA mismatch repair activity of MLH1 variant (in words) | other results
p.Arg385Pro: human MLH1 missense variant in the MVRTD motif | a defect similarly strong as the core-scramble variant; also recorded: most pronounced effect; also recorded: mismatch repair defect | DNA mismatch repair activity of MLH1 variant (in words) (listed as proline substitution of Arg385): loss of mismatch repair activity
ΔConMot: deletion variant in which the conserved ConMot sequence comprising 20 residues was removed | fully abrogated mismatch repair | DNA mismatch repair activity of MLH1 variant (in words) (listed as deletion): complete loss of MMR activity; DNA mismatch repair activity of MLH1 variant (in words) (listed as deletion of the ConMot): fully deficient in MMR
B1 | well tolerated | 
B2 | a defect similarly strong as the core-scramble variant | effect of second p.Arg385 alteration on the MMR defect of p.Tyr750Arg: additionally aggravated the defect
B3 | did not find a catalytic defect | 
B4 | a defect similarly strong as the core-scramble variant | effect of second p.Arg385 alteration on the MMR defect of p.Tyr750Arg: additionally aggravated the defect
B5 | tolerated; also recorded: did not affect catalytic activity | 
B6 | no detectable impairment of MMR | 
